Source: the Human Domainome abundance scans (Beltran et al. 2025)
± gives the uncertainty stated by the source.

B1: 3'-5' exoribonuclease 1, residues 65 to 114; numbered along this chain, Q8IV48 (parent)
chain: VYKEIAITNGCINRMSKEELRAKLSEFKLETRGVKDVLKKRLKNYYKKQK

Variants of: B1
Assay: abundance fitness (aPCA) (normalised: wild type 0, dead -1); higher = more abundant; growth selection in yeast, the domain comes from the species named
Settings: Homo sapiens

Abundance fitness of substitutions, site by site:
K43: P -0.806 ± 0.063; F -0.755 ± 0.062; A -0.579 ± 0.05; C -0.823 ± 0.061; E -0.712 ± 0.063; R -0.366 ± 0.036; N -0.39 ± 0.061; Q -0.469 ± 0.068
E18: Y -0.179 ± 0.054; H -0.043 ± 0.062; R 0.04 ± 0.037; P -0.008 ± 0.045; K 0.058 ± 0.059; D -0.034 ± 0.047; Q 0.075 ± 0.064
K35: S -0.48 ± 0.038; W -0.815 ± 0.088; A -0.347 ± 0.047; T -0.314 ± 0.041; R -0.52 ± 0.041; I -0.475 ± 0.047; H -0.709 ± 0.048
K48: H -0.213 ± 0.064; V -0.432 ± 0.038; C -0.323 ± 0.049; P -0.87 ± 0.061; A -0.187 ± 0.041; T -0.175 ± 0.055; W -0.393 ± 0.043; F -0.51 ± 0.074
G10: K -0.112 ± 0.044; E -0.155 ± 0.046; P -0.248 ± 0.04
G33: E -0.791 ± 0.12; Q -1.09 ± 0.089; R -0.739 ± 0.053; W -0.779 ± 0.11
Y46: C 0.066 ± 0.042; N -0.268 ± 0.069; T -0.125 ± 0.047; P -1 ± 0.07; G -0.533 ± 0.035
R41: P -0.803 ± 0.063; T -0.963 ± 0.067; A -0.891 ± 0.046; Q -0.992 ± 0.066; D -1.09 ± 0.15; Y -0.941 ± 0.12; E -1.02 ± 0.067; K -0.914 ± 0.089; H -1.02 ± 0.12
T8: E -0.24 ± 0.049; F -0.472 ± 0.049; W -0.513 ± 0.049; K -0.07 ± 0.048; Y -0.49 ± 0.057
I12: G -0.877 ± 0.047; W -0.435 ± 0.043; Y -0.699 ± 0.06; A -0.873 ± 0.052; V -0.152 ± 0.039; P -0.716 ± 0.048; D -0.961 ± 0.088
K28: S -0.06 ± 0.042; D -0.156 ± 0.07; E -0.178 ± 0.057; W -0.779 ± 0.059; Y -0.39 ± 0.065
E19: I -0.699 ± 0.078; Y -0.652 ± 0.056; S -0.26 ± 0.04; P -1.01 ± 0.081
A22: H -0.049 ± 0.063; G -0.118 ± 0.034; D -0.122 ± 0.051; M -0.047 ± 0.051; V -0.048 ± 0.038; L -0.052 ± 0.038; R -0.031 ± 0.038; C -0.032 ± 0.044; N -0.027 ± 0.061; T -0.055 ± 0.052; S -0.04 ± 0.039
I7: M -0.016 ± 0.042; Q -0.141 ± 0.05; R -0.178 ± 0.033; N -0.17 ± 0.058
K17: Q -0.664 ± 0.13; N -0.378 ± 0.063; I -0.329 ± 0.057
F27: W -0.453 ± 0.044; E -0.036 ± 0.062; M 0.026 ± 0.046; P -0.914 ± 0.067; H 0.062 ± 0.049; S -0.307 ± 0.037; K -0.065 ± 0.049; C 0.065 ± 0.041; D -0.652 ± 0.078; Y -0.019 ± 0.046; I 0.003 ± 0.054; G -0.723 ± 0.044; T -0.483 ± 0.05
V1: G 0.002 ± 0.044; M -0.065 ± 0.081; D -0.078 ± 0.054; S -0.038 ± 0.079; F -0.104 ± 0.058; T -0.122 ± 0.12; C -0.072 ± 0.071
D36: L -0.201 ± 0.033; R 0 ± 0.035; A -0.024 ± 0.035; E -0.379 ± 0.051; P -0.17 ± 0.036; V -0.292 ± 0.035; N 0.02 ± 0.036
K3: E 0.012 ± 0.064; H -0.055 ± 0.064; F -0.34 ± 0.061; V -0.294 ± 0.044; C -0.145 ± 0.057
E30: G -0.562 ± 0.047; Y -0.387 ± 0.041; Q -0.359 ± 0.051; L -0.67 ± 0.036; N -0.16 ± 0.042
R14: V -0.65 ± 0.036; L -0.43 ± 0.037; E -0.359 ± 0.048; Y -0.826 ± 0.059; F -0.881 ± 0.065; I -0.724 ± 0.07; H -0.166 ± 0.057
A6: S -0.075 ± 0.063; H 0.022 ± 0.09; E -0.092 ± 0.14; G -0.084 ± 0.21; D -0.183 ± 0.43; V 0.011 ± 0.12; Y -0.008 ± 0.09
K23: T -0.172 ± 0.047; G -0.861 ± 0.043; P -0.941 ± 0.061; R -0.101 ± 0.036
L29: W -0.694 ± 0.056; K -0.666 ± 0.054; P -0.999 ± 0.049; V -0.561 ± 0.04; F -0.688 ± 0.04
L20: Q -0.892 ± 0.081; P -0.961 ± 0.068; D -1 ± 0.089; G -0.942 ± 0.043; S -0.479 ± 0.044; M -0.282 ± 0.047; R -0.997 ± 0.052
R32: G -0.394 ± 0.039; A -0.383 ± 0.036; W -0.478 ± 0.051; E -0.572 ± 0.067; I -0.628 ± 0.037; V -0.471 ± 0.036; K -0.209 ± 0.047
L38: Y -1.05 ± 0.085; N -0.95 ± 0.07; M -0.338 ± 0.066; I -0.541 ± 0.049; S -0.458 ± 0.042; K -0.828 ± 0.11
S16: D -0.336 ± 0.093; L -0.838 ± 0.069; P -0.264 ± 0.064
E4: I -0.287 ± 0.063; P -0.107 ± 0.051; H -0.173 ± 0.053; Y -0.164 ± 0.053; R -0.353 ± 0.036; T -0.06 ± 0.047; S -0.077 ± 0.039; Q -0.085 ± 0.061; W -0.229 ± 0.047; D 0.003 ± 0.045
L42: Y -0.969 ± 0.092; K -1.04 ± 0.1; V -0.754 ± 0.038; D -0.961 ± 0.083; A -0.918 ± 0.053; F -0.551 ± 0.057; G -0.871 ± 0.038; N -0.918 ± 0.1; Q -0.912 ± 0.071; C -0.925 ± 0.067
K39: F -0.909 ± 0.059; R -0.114 ± 0.068; D -0.967 ± 0.18; P -0.979 ± 0.091
Y2: V 0.021 ± 0.046; R -0.072 ± 0.045; N 0.067 ± 0.062; M 0.012 ± 0.065; D 0.1 ± 0.07; H 0.01 ± 0.061
C11: L -0.053 ± 0.037; H -0.048 ± 0.053; A 0.046 ± 0.038; W -0.147 ± 0.053; V 0.01 ± 0.034; Y -0.052 ± 0.037
E26: F -0.169 ± 0.07; W -0.406 ± 0.07; T -0.189 ± 0.068; K -0.273 ± 0.08; N -0.273 ± 0.083; I -0.432 ± 0.081
Y45: C -0.399 ± 0.06; S -0.279 ± 0.042; T -1 ± 0.065; F -0.094 ± 0.076; H -0.048 ± 0.06; V -0.8 ± 0.039; W -0.051 ± 0.048; K -0.916 ± 0.081
Q49: F -0.208 ± 0.076; H -0.109 ± 0.032; Y -0.065 ± 0.068; N -0.099 ± 0.077; W -0.206 ± 0.041; V -0.182 ± 0.039; A -0.164 ± 0.04
N44: H -0.065 ± 0.053; Y -0.27 ± 0.059; Q -0.063 ± 0.046; V -0.318 ± 0.039; G -0.158 ± 0.04; W -0.376 ± 0.054
S25: A 0.032 ± 0.039; Q -0.034 ± 0.053; I -0.315 ± 0.055; H -0.099 ± 0.059; K 0.004 ± 0.047; E -0.106 ± 0.053; W -0.188 ± 0.05; R 0.022 ± 0.038
V34: A -0.177 ± 0.051; L -0.213 ± 0.044; D -0.293 ± 0.077; S -0.109 ± 0.043; N 0.039 ± 0.055; M -0.582 ± 0.075; K 0.079 ± 0.08; T 0.046 ± 0.051
R21: S -0.518 ± 0.043; I -0.226 ± 0.073; E -0.841 ± 0.058; Y -0.773 ± 0.075; N -0.787 ± 0.069; G -0.804 ± 0.039; P -0.697 ± 0.071; H -0.644 ± 0.075; Q -0.221 ± 0.052; M -0.449 ± 0.053
M15: E -1.05 ± 0.18; H -0.873 ± 0.062; D -0.981 ± 0.098; I -0.635 ± 0.048; Y -0.645 ± 0.05; A -0.678 ± 0.071; K -0.326 ± 0.082; Q -0.885 ± 0.12
N9: D -0.244 ± 0.06; P 0.015 ± 0.045; A -0.033 ± 0.043; H -0.066 ± 0.052; S -0.067 ± 0.037; E -0.241 ± 0.062; F -0.091 ± 0.054
L24: Y -0.896 ± 0.085; E -0.986 ± 0.081; R -0.96 ± 0.043; H -0.772 ± 0.083; M -0.507 ± 0.052; V -0.813 ± 0.046; K -0.973 ± 0.086; G -0.97 ± 0.048
T31: Q -0.156 ± 0.045; N -0.115 ± 0.038; F 0.038 ± 0.037; Y 0.121 ± 0.04; H 0.143 ± 0.035; G -0.791 ± 0.056; V -0.106 ± 0.041
K47: W -0.608 ± 0.043; R -0.132 ± 0.035; D -0.643 ± 0.081
I5: T 0.066 ± 0.043; D 0.026 ± 0.049; R -0.101 ± 0.039; H -0.006 ± 0.042; V -0.037 ± 0.04; Q 0.041 ± 0.057; A 0.007 ± 0.041; N -0.004 ± 0.045; P -0.003 ± 0.043
N13: F -0.961 ± 0.077; P -0.949 ± 0.065; K -0.376 ± 0.048; W -0.938 ± 0.049; E -0.446 ± 0.05; S -0.272 ± 0.038; I -0.65 ± 0.078; M -0.801 ± 0.057
K40: E -0.44 ± 0.055; T -0.398 ± 0.044; S -0.521 ± 0.039; D -0.741 ± 0.062; M -0.634 ± 0.057; N -0.319 ± 0.067; V -0.669 ± 0.038
V37: N -0.321 ± 0.076; L -0.544 ± 0.052; P -1.02 ± 0.11; I -0.228 ± 0.046; D -0.25 ± 0.11; W -0.763 ± 0.12; A -0.037 ± 0.061
K50: R -0.089 ± 0.071; I -0.157 ± 0.07; T -0.179 ± 0.06; Q -0.123 ± 0.073; H -0.164 ± 0.059; D -0.347 ± 0.074; N -0.06 ± 0.048; W -0.052 ± 0.12
